# Assay: soluble on expression in E. coli; label from the status in PepcDB or PDB records
row,Sequence,soluble on expression in E. coli
1,MAAPVDLELKKAFAELQAKMVDTQQKVKLADLQIEQLSRVKKHANLTHGEITSLPESTRMFEGAGRMFILQSKGEISNQLLEKQKTADDKIKELEQKKTYLERSVKDAEDNIREMLMSRRAQ,not soluble
2,MAAQIPESDQIKQFKEFLGTYNKLTETCFLDCVKDFTTREVKPEETTCSEHCLQKYLKMTQRISMRFQEYHIQQNEALAAKAGLLGQPR,soluble
3,MAAQRRSLLQSEQQPSWTDDLPLCHLSGVGSASNRSYSADGKGTESHPPEDSWLKFRSENNCFLYGVFNGYDGNRVTNFVAQRLSAELLLGQLNAEHAEADVRRVLLQAFDVVERSFLESIDDALAEKASLQSQLPEGVPQHQLPPQYQKILERLKTLEREISGGAMAVVAVLLNNKLYVANVGTNRALLCKSTVDGLQVTQLNVDHTTENEDELFRLSQLGLDAGKIKQVGIICGQESTRRIGDYKVKYGYTDIDLLSAAKSKPIIAEPEIHGAQPLDGVTGFLVLMSEGLYKALEAAHGPGQANQEIAAMIDTEFAKQTSLDAVAQAVVDRVKRIHSDTFASGGERARFCPRHEDMTLLVRNFGYPLGEMSQPTPSPAPAAGGRVYPVSVPYSSAQSTSKTSVTLSLVMPSQGQMVNGAHSASTLDEATPTLTNQSPTLTLQSTNTHTQSSSSSSDGGLFRSRPAHSLPPGEDGRVEPYVDFAEFYRLWSVDHGEQSVVTAP,not soluble
4,MAARPITLGIDLGTTSVKAALLRAAPDDPSGFAVLASCARAARAEAAVESAVAGPQGREQDVSRILQALHECLAALPRPQLRSVVGIGVSGQMHGVVFWKTGQGCEWTEGGITPVFEPRAVSHLVTWQDGRCSSEFLASLPQPKSHLSVATGFGCATIFWLLKYRPEFLKSYDAAGTIHDYVVAMLCGLPRPLMSDQNAASWGYFNTQSQSWNVETLRSSGFPVHLLPDIAEPGSVAGRTSHMWFEIPKGTQVGVALGDLQASVYSCMAQRTDAVLNISTSVQLAASMPSGFQPAQTPDPTAPVAYFPYFNRTYLGVAASLNGGNVLATFVHMLVQWMADLGLEVEESTVYSRMIQAAVQQRDTHLTITPTVLGERHLPDQLASVTRISSSDLSLGHVTRALCRGIVQNLHSMLPIQQLQEWGVERVMGSGSALSRNDVLKQEVQRAFPLPMSFGQDVDAAVGAALVMLRRHLNQKES,not soluble
5,MAATTKKPEIAAQHKPQTAAAAVASPATGAQPGHYVDPAVASAAGVNNVPAQHQAPGSPAQGYGAAADIGGLTTQPTAISAGTSSIYSTATHSGSAAAQGMAAAQGGSAQKIIPAVSSVYSAPIQPSQPQPVAAPVAVPVAAQVPPEQHSENRQPAAVPVPQPEQRAAAQPATNAGATVEGREGEGRSLTLAAFFAGAAKKRLPKMIESGTAGNTEVAALSGAADGSMGIALSGRSMMSEEFDDAHLDEEDDQPNGLMKLASLSGLTRVSPNGLFLQTDHVEVGCFKPELVRMIKDVERHYNSPAIVTSGYRPPKGIRQGSKHYTCDAADIQIKGVSKWELATYLRSLPDRGGVGTYCHTESVHMDTGEARDWNWRCRRTAARK,not soluble
6,MACLCLANISWATVCANSTGVAEDEHYDLSNVFNSTNNQPGQIVVLPEKSGWVGVSAICPPGTLVNYTYRSYVTNFIVQETIDNYKYMQLNDYLLGAMSLVDSVMDIQFPPQNYIRMGTDPNVSQNLPFGVMDSRLIFRLKVIRPFINMVEIPRQVMFTVYVTSTPYDPLVTPVYTISFGGRVEVPQNCELNAGQIVEFDFGDIGASLFSAAGPGNRPAGVMPQTKSIAVKCTNVAAQAYLTMRLEASAVSGQAMVSDNQDLGFIVADQNDTPITPNDLNSVIPFRLDAAAAANVTLRAWPISITGQKPTEGPFSALGYLRVDYQ,not soluble
7,MADDGLGDVPMETESMPQYTISHVIEAHKSDTKALAVTQGGCLISGGRDETVKFWAKKGKQYTKTHAFEQPKGITVNSIAYAELADGWRLFVGRRDGTIAVFGPSQAEPYAIFNEHKQNVCCLHINEKATHMLSGSWDSNVIIWPITELNSSSFTTIVCPGHTLSVWALASFPDLPNTYLSASADKTIRMWFGDTTLSVFKGHTDVVRALVVLSSSHFLSAGNDGHIIHWDVASASILRKFATQAHEFIYSMTLSDSHILTTGEDGTLEFWAIDGGKDGNLAIVSEAVIQLPTTNTWDAKVLLNSDIAVAGSDGRIYIMTTDKNRKADDDILDAFDAEVVAKLTAKTERMKQEEHETVTIKVDIDDRPTQLNLKYKKGTDPGLCAQEFLSENNLPIHYLEEITRFIKDRIPEARAFDLKSGKKVIVDGKEYDYALGVNFGKGEPDKQMPFNVNESPQFAAQRFVERHQLPVSVIPSLAGMISQEMDKLSKGAASAQSGYEDPFTGPGRYVPQGSSNSGGHGADPFTGSGRYVPQASNSSGFDTGFSGDPLTGDGGYRASAPENTGSHAVPLSSLPQNKKKPRGPLVPVPDFYIIGLAGKGEKAIAKLKELNEKQDAFQLNPDQINGLEELFVLPTSSNYSSEVTQSAFEMSLQWPVEHLTPVLDFLRIALTHHSLNSYFCDRERGQELVGRLIAILVSDPADVALKVLVCRCIANAFSHPVGRNLFASTELSTLAPLVVRQVLNEKTVLQMSAATALANWSLALLQQSEQCEQLGPKEDLLRAILNGIESVDSFGYLGEDAIIRLLQALVTVMWGDASVIRLAKNRNIAQIAARLKDAVSNDSGKNIARDIVEMTYAV,not soluble
8,MADEINEIREEQEQLAPFDPSKKKKKKKVVIQEPVEDLAESSQTEKSDSLPVNDGLESSFTGMKKKKKKPTESSLLNNESVDAGEDLDEIANDEQEGEEGIVLQQRYPWEGSERDYIYDELLGRVFNILRENNPELAGDRRRTVMRPPQVLREGTKKTVFVNFMDLCKTMHRQPDHVMQYLLAELGTSGSLDGQQRLVVKGRFAPKNFEGILRRYITDYVICLGCKSPDTILSKENRLFFLRCEKCGSQRSVAPIKTGFVARVSRRKT,soluble
9,MADLQKNFQTSFRDAMASCAAGVHVITTDGAAGRYGITMTAVAPVTDEPPTVMLCINRSARIIPILSENGSLCINTLADEHQDVAEHFAGLTGLSPEERFAYHIWHRGKTGQLEIEGALAHLHGHIVGKHEIGTHFVFYVRLDEIKNCGCKRPALLYFRRQFRFLD,not soluble
10,MADNGNEEDRNGYIINRTRFAADFHNRNEDLSEWEEMRGIEWDLILHSDGGQLYTQLVTRSRLQYEIPCKFLLEAQYGQVKVGENFDVTVSSRNHTFGMRIDQPADNGAIKITAYIDF,not soluble
11,MADNYVIWFENLRMTDVERVGGKNASLGEMISQLTEKGVRVPGGFATTAEAYRAFLAHNGLSERISAALAKLDVEDVAELARVGKEIRQWILDTPFPEQLDAEIEAAWNKMVADAGGADISVAVRSSATAEDLPDASFAGQQETFLNINGLDNVKEAMHHVFASLYNDRAISYRVHKGFEHDIVALSAGVQRMVRSDSGASGVMFTLDTESGYDQVVFVTSSYGLGENVVQGAVNPDEFYVFKPTLKAGKPAILRKTMGSKHIKMIFTDKAEAGKSVTNVDVPEEDRNRFSITDEEITELAHYALTIEKHYGRPMDIEWGRDGLDGKLYILQARPETVKSQEEGNRNLRRFAINGDKTVLCEGRAIGQKVGQGKVRLIKDASEMDSVEAGDVLVTDMTDPDWEPV,not soluble
12,MADSELQSAIGNNEECVNLFSDCDNVFVVAGISPLIDFQNNLNRIENYLCQKKIVGVKLYPGHEQFYLNDPRLESVFLLCEAFDVPVAVHTGWDNPHFNAPALFADIAGKHPKLKIVNCHLWYPKIDYCYEVTRDYQNIYYDISSLADDKGNKSKITEVLHRIANENPHRLIFGSDYGMCDPMAHIELVDRLPVSDETREMIFYKNAVGLYGLSRING,soluble
13,MADSGTAGGAALAAPAPGPGSGGPGPRVYFQSPPGAAGEGPGGADDEGPVRRQGKVTVKYDRKELRKRLNLEEWILEQLTRLYDCQEEEIPELEIDVDELLDMESDDARAARVKELLVDCYKPTEAFISGLLDKIRGMQKLSTPQKK,soluble
14,MADSLDRLYQAVLAARDLDPATSRTARLFQRGSGKMAKKLAEEAIEVVIDAVNGNREAVIRESADLLYNLTVLWASAGVRPEDVWAEMRRRENLLGIAEKLPKSRIGKPAAPHATRRPVIPQEARAVRKHR,not soluble
15,MAEAGDENLYAAARDIARALGKDPSAAGDILQILSGYGASGNRGGDPRPTPSRGGSNVNFDRALTSLERQISSYIVEDRPIWSDPVDSRTFLDSVDELLAIAGDLRSMAGDKSVAVCQSRADELIQQVMFRLQEEFGFVMDRAPDSFDSDDEFPGEEDNDTSDGVIVARPITDYKIVIEALQSSVIGDLNAIAVRMVAGGFAKECSRVYSSRRREFLEESLSRLHLRGLSMEEVQESPWQDLEDEIDRWIKAVTLIFHVFFPSERLLCDRVFSDLPVSSVTDLSFMEVCRGTTTQLLNFADAIALGSRLPERLFKVVDLYEAMQDLIPKMETLFSDRYCSPLRHEALAIHKRLGEAIRGIFMELENLIRRDPPKTAFPGGGIHPITRYVMNYLRAACKSRQSLEQILDQTGNETGSDTRPLSVQIIWVLELLESNLEGKKRTYRDPSLCFLFMMNNDKYILDKAKDNELGLVLGEDWIVKHAAKLRQYHSNYRRSSWNQVVGLLRTDGPYPKLVENLRLFKSQFDEVCKVQSQWVVSDGQLREELRSSVAGIVSPAYSNFIRRLKESPEINGRRGEPFIPYTVEDVEFIIKRLFKESSS,soluble
16,MAEEVRAFSLPSRRVVLQDEKMEQDEEHSSPTRSTSSNSDEPTETIESGDQFDVNEPIPTIETLEPVIISAASVQQLPAISLSGNNAQRTLWIGDVPTDWTEETLSQVFTECGHAPYKVKRVYVKDELKGYCFIEFITFDEARQTLYDLNGNRIPGFKDIRFNLCFANDSYNPNSEFNLHVSSVPDDMADAELYRIFDKYQSCRGAKMFRFVDGSSKGSGFVRFGNQTDQQMALVEMHRTKVGGCRIILKLAGSRGERLDRGESRQFKSQRNDRRRDEKSGQYRNGTAVPQQTQVYDAYGNPVVVPVDKNIYGTDHPWGPFPDDPDLDSIIGLDLLTTKYRPQIANKRLMIDTDQFMLDLESSRWSSIAFNTNIKKEDFEKRITDNPWTAVP,not soluble
17,MAEGVADRIIGLYSLGNSTREISDWLKENLGNRVSDETISSITDRVLPEIKVWRSRILDDVYSIVWINAIHYKVTDERGCTVTRAIYNVLGIDKEGHKDLLGMYISKNEGANFWLNVLTDLQNRGVHDILIAYVDGLKGWMPPKVFFRTQYYNFVSSTRYGTPLNMSVVSIRRNSSKT,not soluble
18,MAEHNELGKAGENAAVAYLEEHGYLIRHRNWRKGHFELDIVAAKENELVIVEVKTRSNTLFAQPEEAVDLPKIKRTVRAADAYMKLFQIDVPVRFDIITVIGENGNFRIDHIKEAFYPPLF,not soluble
19,MAEKFIKHTGLVVPLDAANVDTDAIIPKQFLQKVTRTGFGAHLFNDWRFLDEKGQQPNPDFVLNFSQYQGASILLARENFGCGSSREHAPWALTDYGFKVVIAPSFADIFYGNSFNNQLLPVKLSDAEVDELFALVKANPGIHFDVDLEAQEVKAGEKTYRFTIDAFRRHCMMNGLDSIGLTLQHDDAIAAYEAKQPAFMR,not soluble

# Reference: the DeepSol protein solubility set
